The results in this text go back to article PMC10235082.

pKd: −log10 of the molar value.

One test addresses human FcRn (human) (UniProt P55899). Nature of the test: SPR; Biacore T200; FcRn immobilised on CM5 sensor chip, IVIG (from 500 nM) or rhIgG1 Fc (from 250 nM) injected, two-fold serial dilution; regeneration 100 mM Tris-HCl; multicycle kinetics model (methods), steady state equilibrium model (legend of Fig. 4). For orientation: SPR reads the build-up and loss of mass on a sensor chip optically.
Sequence of UniProt P55899 (P55899 24-297, chain 1 of 2): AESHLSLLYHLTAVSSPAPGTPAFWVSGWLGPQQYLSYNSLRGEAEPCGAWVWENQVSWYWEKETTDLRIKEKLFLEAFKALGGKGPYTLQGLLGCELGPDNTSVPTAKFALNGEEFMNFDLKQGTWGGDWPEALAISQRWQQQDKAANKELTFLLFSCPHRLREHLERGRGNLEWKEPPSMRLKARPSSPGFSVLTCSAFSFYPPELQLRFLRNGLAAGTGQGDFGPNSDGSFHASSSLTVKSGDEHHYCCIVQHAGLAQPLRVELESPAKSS
Sequence of UniProt P55899 (P61769 21-119, chain 2 of 2, further chain): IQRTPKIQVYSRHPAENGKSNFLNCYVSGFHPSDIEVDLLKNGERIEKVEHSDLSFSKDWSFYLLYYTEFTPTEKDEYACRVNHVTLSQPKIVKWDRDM

Another test has as its target human FcγRIA (human) (UniProt P12314). Description: SPR; Biacore T200; FcγRs immobilised on CM5 sensor chip, IVIG or rhIgG1 Fc injected; three-fold serial dilution (FcγRIA from 300 nM; FcγRIIA from 20 μM; FcγRIIIA from 3 μM IVIG and 300 nM hIgG1 Fc); regeneration 10 mM glycine; single cycle kinetics model.
Sequence of UniProt P12314 (P12314 16-292): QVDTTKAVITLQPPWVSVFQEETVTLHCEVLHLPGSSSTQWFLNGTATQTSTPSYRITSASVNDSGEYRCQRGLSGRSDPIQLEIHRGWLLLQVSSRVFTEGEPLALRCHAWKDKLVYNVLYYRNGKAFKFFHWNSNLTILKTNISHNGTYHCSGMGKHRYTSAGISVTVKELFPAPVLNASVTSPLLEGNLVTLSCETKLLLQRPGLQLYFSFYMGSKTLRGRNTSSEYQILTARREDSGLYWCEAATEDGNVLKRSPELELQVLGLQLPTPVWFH
Test [1] deals with human FcγRIIIA F176V (human) (UniProt P08637). The description is as above.
Sequence of UniProt P08637 (P08637 17-208 F176V): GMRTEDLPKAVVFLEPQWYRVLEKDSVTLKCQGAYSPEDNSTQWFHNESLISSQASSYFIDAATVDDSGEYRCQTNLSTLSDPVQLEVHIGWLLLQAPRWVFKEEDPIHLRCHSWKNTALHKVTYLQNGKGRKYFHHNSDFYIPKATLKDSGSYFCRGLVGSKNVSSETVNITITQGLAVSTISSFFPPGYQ

For the substance “recombinant human IgG1 Fc derived from ALB::hIgG1 Fc genome-edited chickens (domain or fragment)”, the results for the pKd (in the test with human FcRn (human); with human FcγRIA (human); in test [1]) were 8.04, 8.89 and 8.00, respectively.
